First the molecules themselves.
B1: Max-interacting protein 1, residues 70 to 120; numbered along this chain, P50539 (parent)
chain: STHNELEKNRRAHLRLCLERLKVLIPLGPDCTRHTTLGLLNKAKAHIKKLE

± gives the uncertainty stated by the source.

In the series the parent is B1. Description: abundance fitness (aPCA) (normalised: wild type 0, dead -1); higher = more abundant; growth selection in yeast, the domain comes from the species named. Particulars: Homo sapiens.
With STHNELEKNRIAHLRLCLERLKVLIPLGPDCTRHTTLGLLNKAKAHIKKLE, the abundance fitness is -0.252 ± 0.26. The same measure for STHNELEKNRCAHLRLCLERLKVLIPLGPDCTRHTTLGLLNKAKAHIKKLE: -0.256 ± 0.23; for STHNELEKNRQAHLRLCLERLKVLIPLGPDCTRHTTLGLLNKAKAHIKKLE: -0.281 ± 0.12. Take STHNELEKNRAAHLRLCLERLKVLIPLGPDCTRHTTLGLLNKAKAHIKKLE: the abundance fitness is -0.547 ± 0.1. The same measure for STHNELEKNRTAHLRLCLERLKVLIPLGPDCTRHTTLGLLNKAKAHIKKLE: -0.352 ± 0.12; for STHNELEKNRSAHLRLCLERLKVLIPLGPDCTRHTTLGLLNKAKAHIKKLE: -0.375 ± 0.12. The same measure for STHNELEKNRLAHLRLCLERLKVLIPLGPDCTRHTTLGLLNKAKAHIKKLE: -0.062 ± 0.085; for STHNELEKNRDAHLRLCLERLKVLIPLGPDCTRHTTLGLLNKAKAHIKKLE: -0.19 ± 0.14; for STHNELEKNRPAHLRLCLERLKVLIPLGPDCTRHTTLGLLNKAKAHIKKLE: -0.105 ± 0.12. The same measure for STHNELEKNRKAHLRLCLERLKVLIPLGPDCTRHTTLGLLNKAKAHIKKLE: 0.223 ± 0.11; for STHNELEKNRWAHLRLCLERLKVLIPLGPDCTRHTTLGLLNKAKAHIKKLE: -0.257 ± 0.1; for STHNELEKNRHAHLRLCLERLKVLIPLGPDCTRHTTLGLLNKAKAHIKKLE: -0.13 ± 0.13. Take STHNELEKNRMAHLRLCLERLKVLIPLGPDCTRHTTLGLLNKAKAHIKKLE: the abundance fitness is -0.261 ± 0.13. The same measure for STHNELEKNRFAHLRLCLERLKVLIPLGPDCTRHTTLGLLNKAKAHIKKLE: -0.396 ± 0.15.

On to STHNELEYNRRAHLRLCLERLKVLIPLGPDCTRHTTLGLLNKAKAHIKKLE, for which the abundance fitness was -0.619 ± 0.18. The result for STHNELECNRRAHLRLCLERLKVLIPLGPDCTRHTTLGLLNKAKAHIKKLE reads -0.278 ± 0.15; that for STHNELEENRRAHLRLCLERLKVLIPLGPDCTRHTTLGLLNKAKAHIKKLE, -0.291 ± 0.11.

In the case of STHNELEHNRRAHLRLCLERLKVLIPLGPDCTRHTTLGLLNKAKAHIKKLE, the abundance fitness was -0.205 ± 0.14. In the case of STHNELENNRRAHLRLCLERLKVLIPLGPDCTRHTTLGLLNKAKAHIKKLE, the abundance fitness is -0.328 ± 0.18. The same measure for STHNELELNRRAHLRLCLERLKVLIPLGPDCTRHTTLGLLNKAKAHIKKLE: -0.232 ± 0.11. The result for STHNELERNRRAHLRLCLERLKVLIPLGPDCTRHTTLGLLNKAKAHIKKLE reads -0.353 ± 0.089.

With STHNELEMNRRAHLRLCLERLKVLIPLGPDCTRHTTLGLLNKAKAHIKKLE, the abundance fitness is -0.511 ± 0.14. Regarding STHNELEQNRRAHLRLCLERLKVLIPLGPDCTRHTTLGLLNKAKAHIKKLE, the abundance fitness is -0.492 ± 0.22.

With STHNELEANRRAHLRLCLERLKVLIPLGPDCTRHTTLGLLNKAKAHIKKLE, the abundance fitness was -0.386 ± 0.089.

On to STHNELETNRRAHLRLCLERLKVLIPLGPDCTRHTTLGLLNKAKAHIKKLE, for which the abundance fitness was -0.377 ± 0.12. The same measure for STHNELEFNRRAHLRLCLERLKVLIPLGPDCTRHTTLGLLNKAKAHIKKLE: -0.236 ± 0.13; for STHNELEDNRRAHLRLCLERLKVLIPLGPDCTRHTTLGLLNKAKAHIKKLE: -0.568 ± 0.13; for STHNELEINRRAHLRLCLERLKVLIPLGPDCTRHTTLGLLNKAKAHIKKLE: -0.536 ± 0.23. The same measure for STHNELEGNRRAHLRLCLERLKVLIPLGPDCTRHTTLGLLNKAKAHIKKLE: -0.043 ± 0.087; for STHNELEWNRRAHLRLCLERLKVLIPLGPDCTRHTTLGLLNKAKAHIKKLE: -0.444 ± 0.11. On to STHNELEVNRRAHLRLCLERLKVLIPLGPDCTRHTTLGLLNKAKAHIKKLE, for which the abundance fitness is -0.338 ± 0.095. The same measure for STHNELEPNRRAHLRLCLERLKVLIPLGPDCTRHTTLGLLNKAKAHIKKLE: -0.451 ± 0.14; for STHNELEKNARAHLRLCLERLKVLIPLGPDCTRHTTLGLLNKAKAHIKKLE: 0.038 ± 0.088; for STHNELEKNDRAHLRLCLERLKVLIPLGPDCTRHTTLGLLNKAKAHIKKLE: -0.545 ± 0.13.

In the case of STHNELEKNIRAHLRLCLERLKVLIPLGPDCTRHTTLGLLNKAKAHIKKLE, the abundance fitness is -0.289 ± 0.13. With STHNELEKNVRAHLRLCLERLKVLIPLGPDCTRHTTLGLLNKAKAHIKKLE, the abundance fitness is -0.101 ± 0.082. The same measure for STHNELEKNLRAHLRLCLERLKVLIPLGPDCTRHTTLGLLNKAKAHIKKLE: -0.076 ± 0.098; for STHNELEKNGRAHLRLCLERLKVLIPLGPDCTRHTTLGLLNKAKAHIKKLE: -0.322 ± 0.083. The result for STHNELEKNHRAHLRLCLERLKVLIPLGPDCTRHTTLGLLNKAKAHIKKLE reads -0.068 ± 0.14; that for STHNELEKNCRAHLRLCLERLKVLIPLGPDCTRHTTLGLLNKAKAHIKKLE, -0.071 ± 0.14; that for STHNELEKNWRAHLRLCLERLKVLIPLGPDCTRHTTLGLLNKAKAHIKKLE, 0.163 ± 0.11. Turning to STHNELEKNTRAHLRLCLERLKVLIPLGPDCTRHTTLGLLNKAKAHIKKLE, the abundance fitness was 0.309 ± 0.14. On to STHNELEKNNRAHLRLCLERLKVLIPLGPDCTRHTTLGLLNKAKAHIKKLE, for which the abundance fitness was -0.18 ± 0.24. The same measure for STHNELEKNQRAHLRLCLERLKVLIPLGPDCTRHTTLGLLNKAKAHIKKLE: -0.219 ± 0.15.

As for STHNELEKNFRAHLRLCLERLKVLIPLGPDCTRHTTLGLLNKAKAHIKKLE, the abundance fitness was -0.164 ± 0.13.

Consider STHNELEKNPRAHLRLCLERLKVLIPLGPDCTRHTTLGLLNKAKAHIKKLE, for which the abundance fitness was 0.298 ± 0.14.

Consider STHNELEKNERAHLRLCLERLKVLIPLGPDCTRHTTLGLLNKAKAHIKKLE, for which the abundance fitness was -0.71 ± 0.13. Turning to STHNELEKNSRAHLRLCLERLKVLIPLGPDCTRHTTLGLLNKAKAHIKKLE, the abundance fitness is -0.217 ± 0.1. The result for STHNELEKNRREHLRLCLERLKVLIPLGPDCTRHTTLGLLNKAKAHIKKLE reads -0.432 ± 0.11; that for STHNELEKNRRDHLRLCLERLKVLIPLGPDCTRHTTLGLLNKAKAHIKKLE, -0.438 ± 0.17.

For the variant STHNELEKNRRCHLRLCLERLKVLIPLGPDCTRHTTLGLLNKAKAHIKKLE, the abundance fitness was -0.426 ± 0.13.

The values above are taken from the Human Domainome abundance scans (Beltran et al. 2025).
